Values quoted from earlier work in publication PMC3889014.

Target: Cys145 (UniProt position 145, PILIPCHRVVC)

In the case of “O6-alkylguanine DNA-alkyltransferase (AGT; MGMT) (Homo sapiens (inferred; not stated in the sentence with the pKa))”, the pKa is listed as 4–5.
